Source: US20120178908A1 (Novo Nordisk, published 2012)
Changes are numbered by the printed parent chain.

T1: TLT-1 18-188 relipidated in 20:80 PS:PC vesicles (human, UniProt Q86YW5 18-188)
T1 sequence: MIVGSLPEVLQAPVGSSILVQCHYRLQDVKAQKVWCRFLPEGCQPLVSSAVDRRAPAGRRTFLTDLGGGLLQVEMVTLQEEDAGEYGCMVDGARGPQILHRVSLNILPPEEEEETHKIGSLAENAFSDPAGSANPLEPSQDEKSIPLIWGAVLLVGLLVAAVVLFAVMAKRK

T2: TLT-1 receptor on the surface of activated human platelets (human, UniProt Q86YW5 16-311)
T2 sequence: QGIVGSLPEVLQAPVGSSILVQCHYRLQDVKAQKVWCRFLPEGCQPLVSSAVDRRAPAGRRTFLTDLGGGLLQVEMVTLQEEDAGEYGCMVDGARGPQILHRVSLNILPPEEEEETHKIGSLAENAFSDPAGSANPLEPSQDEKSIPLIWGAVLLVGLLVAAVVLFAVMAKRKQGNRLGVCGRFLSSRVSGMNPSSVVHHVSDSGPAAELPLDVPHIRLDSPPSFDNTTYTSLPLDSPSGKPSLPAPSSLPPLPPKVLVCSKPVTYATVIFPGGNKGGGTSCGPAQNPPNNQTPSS

B1: Fab 0012-VH-CH1-L4a-hTF.1-219; LC-HPC4 (other)
heavy: EVKLLESGGGLVQPGGSLKLSCAASGFDFSRYWMTWVRQAPGKGLEWIGEINPDSSTINYTPSLKDKFIISRDNAKNTLYLQMSEVRSEDTALYYCASGVFTSWGQGTLVTVSAASTKGPSVFPLAPCSRSTSESTAALGCLVKDYFPEPVTVSWNSGALTSGVHTFPAVLQSSGLYSLSSVVTVPSSSLGTKTYTCNVDHKPSNTKVDKRVESKGSGGGGSGGGGSGGGGSSGTTNTVAAYNLTWKSTNFKTILEWEPKPVNQVYTVQISTKSGDWKSKCFYTTDTECDLTDEIVKDVKQTYLARVFSYPAGNVESTGSAGEPLYENSPEFTPYLETNLGQPTIQSFEQVGTKVNVTVEDERTLVRRNNTFLSLRDVFGKDLIYTLYYWKSSSSGKKTAKTNTNEFLIDVDKGENYCFSVQAVIPSRTVNRKSTDSPVECMGQEKGEFRE
light: DVVMTQTPLSLPVSLGDQASISCRSSQSLVHRNGNTYFHWCLQKPGQSPKLLIYKVSNRFSGVPDRFSGSGSGTDFTLKISRVEAEDLGVYFCSQSTHVPYTFGGGTKLEIKRTVAAPSVFIFPPSDEQLKSGTASVVCLLNNFYPREAKVQWKVDNALQSGNSQESVTEQDSKDSTYSLSSTLTLSKADYEKHKVYACEVTHQGLSSPVTKSFNRGECEDQVDPRLIDGK
B2: Fab 0061-VH-CH1-L10-TF;LC-HPC4 (other)
VH-CH1-linker-TF: EVKLLESGGGLVQPGGSLKLSCAASGFDFSRYWMTWVRQAPGKGLEWIGEINPDSSTINYNPSLKDKFIISRDNAKNTLYLQMSEVRSEDTALYYCASGVFTSWGQGTLVTVSAASTKGPSVFPLAPCSRSTSESTAALGCLVKDYFPEPVTVSWNSGALTSGVHTFPAVLQSSGLYSLSSVVTVPSSSLGTKTYTCNVDHKPSNTKVDKRVESKYGPPSPSSPAPEFLGGSGTTNTVAAYNLTWKSTNFKTILEWEPKPVNQVYTVQISTKSGDWKSKCFYTTDTECDLTDEIVKDVKQTYLARVFSYPAGNVESTGSAGEPLYENSPEFTPYLETNLGQPTIQSFEQVGTKVNVTVEDERTLVRRNNTFLSLRDVFGKDLIYTLYYWKSSSSGKKTAKTNTNEFLIDVDKGENYCFSVQAVIPSRTVNRKSTDSPVECMGQEKGEFRE
light chain-HPC4: B1 light with C41A
B3: Fab 0082-VH-CH1-L10-TF;LC-HPC4 (other)
VH-CH1-linker-TF: B2 VH-CH1-linker-TF with N61A
light chain-HPC4: B1 light with C41A
B4: Fab 0012-LC-L0-hTF.1-219; VH-CH1-HPC4 (other)
light: DVVMTQTPLSLPVSLGDQASISCRSSQSLVHRNGNTYFHWCLQKPGQSPKLLIYKVSNRFSGVPDRFSGSGSGTDFTLKISRVEAEDLGVYFCSQSTHVPYTFGGGTKLEIKRTVAAPSVFIFPPSDEQLKSGTASVVCLLNNFYPREAKVQWKVDNALQSGNSQESVTEQDSKDSTYSLSSTLTLSKADYEKHKVYACEVTHQGLSSPVTKSFNRGECSGTTNTVAAYNLTWKSTNFKTILEWEPKPVNQVYTVQISTKSGDWKSKCFYTTDTECDLTDEIVKDVKQTYLARVFSYPAGNVESTGSAGEPLYENSPEFTPYLETNLGQPTIQSFEQVGTKVNVTVEDERTLVRRNNTFLSLRDVFGKDLIYTLYYWKSSSSGKKTAKTNTNEFLIDVDKGENYCFSVQAVIPSRTVNRKSTDSPVECMGQEKGEFRE
heavy: EVKLLESGGGLVQPGGSLKLSCAASGFDFSRYWMTWVRQAPGKGLEWIGEINPDSSTINYTPSLKDKFIISRDNAKNTLYLQMSEVRSEDTALYYCASGVFTSWGQGTLVTVSAASTKGPSVFPLAPCSRSTSESTAALGCLVKDYFPEPVTVSWNSGALTSGVHTFPAVLQSSGLYSLSSVVTVPSSSLGTKTYTCNVDHKPSNTKVDKRVESKEDQVDPRLIDGK
B5: Fab 0023-LC-L3-TF;VH-CH1-HPC4 (other)
light chain-linker-TF: DIVVSQSPSSLAVSAGEKVTMSCKSSQSLLNSRTRKNYLAWYQQKPGQSPKLLIYWASTRESGVPDRFTGSGSGTDFTLTISSVQAEDLAVYYCKQSYNLLTFGAGTKLELKRTVAAPSVFIFPPSDEQLKSGTASVVCLLNNFYPREAKVQWKVDNALQSGNSQESVTEQDSKDSTYSLSSTLTLSKADYEKHKVYACEVTHQGLSSPVTKSFNRGECGSGGGGSGGGGSSGTTNTVAAYNLTWKSTNFKTILEWEPKPVNQVYTVQISTKSGDWKSKCFYTTDTECDLTDEIVKDVKQTYLARVFSYPAGNVESTGSAGEPLYENSPEFTPYLETNLGQPTIQSFEQVGTKVNVTVEDERTLVRRNNTFLSLRDVFGKDLIYTLYYWKSSSSGKKTAKTNTNEFLIDVDKGENYCFSVQAVIPSRTVNRKSTDSPVECMGQEKGEFRE
VH-CH1-HPC4: EVRLVESGGGLVQPGGSLKLSCATSGFTFSDYFMYWIRQTPEKRLEWVAYISNGGDSSSYPDTVKGRFTISRDNAKNTLYLQMSRLKSEDTAMYYCATNKNWDDYYDMDYWGQGTSVTVSSASTKGPSVFPLAPCSRSTSESTAALGCLVKDYFPEPVTVSWNSGALTSGVHTFPAVLQSSGLYSLSSVVTVPSSSLGTKTYTCNVDHKPSNTKVDKRVESKEDQVDPRLIDGK
B6: Fab 0023-LC-L4a-TF;VH-CH1-HPC4 (other)
light chain-linker-TF: DIVVSQSPSSLAVSAGEKVTMSCKSSQSLLNSRTRKNYLAWYQQKPGQSPKLLIYWASTRESGVPDRFTGSGSGTDFTLTISSVQAEDLAVYYCKQSYNLLTFGAGTKLELKRTVAAPSVFIFPPSDEQLKSGTASVVCLLNNFYPREAKVQWKVDNALQSGNSQESVTEQDSKDSTYSLSSTLTLSKADYEKHKVYACEVTHQGLSSPVTKSFNRGECGSGGGGSGGGGSGGGGSSGTTNTVAAYNLTWKSTNFKTILEWEPKPVNQVYTVQISTKSGDWKSKCFYTTDTECDLTDEIVKDVKQTYLARVFSYPAGNVESTGSAGEPLYENSPEFTPYLETNLGQPTIQSFEQVGTKVNVTVEDERTLVRRNNTFLSLRDVFGKDLIYTLYYWKSSSSGKKTAKTNTNEFLIDVDKGENYCFSVQAVIPSRTVNRKSTDSPVECMGQEKGEFRE
VH-CH1-HPC4: B5 VH-CH1-HPC4
B7: Fab 0023-LC-L6-TF;VH-CH1-HPC4 (other)
light chain-linker-TF: DIVVSQSPSSLAVSAGEKVTMSCKSSQSLLNSRTRKNYLAWYQQKPGQSPKLLIYWASTRESGVPDRFTGSGSGTDFTLTISSVQAEDLAVYYCKQSYNLLTFGAGTKLELKRTVAAPSVFIFPPSDEQLKSGTASVVCLLNNFYPREAKVQWKVDNALQSGNSQESVTEQDSKDSTYSLSSTLTLSKADYEKHKVYACEVTHQGLSSPVTKSFNRGECGGGGSGGGGSGSGGGGSGGGGSGGGGSSGTTNTVAAYNLTWKSTNFKTILEWEPKPVNQVYTVQISTKSGDWKSKCFYTTDTECDLTDEIVKDVKQTYLARVFSYPAGNVESTGSAGEPLYENSPEFTPYLETNLGQPTIQSFEQVGTKVNVTVEDERTLVRRNNTFLSLRDVFGKDLIYTLYYWKSSSSGKKTAKTNTNEFLIDVDKGENYCFSVQAVIPSRTVNRKSTDSPVECMGQEKGEFRE
VH-CH1-HPC4: B5 VH-CH1-HPC4
B8: Fab 0051-LC-L4a-TF;VH-CH1-HPC4 (other)
light chain-linker-TF: SIVMTQTPKFLLVSAGDRVTITCKASQSVSNDVAWYQQKPGQSPKLLINYASSRYTGIPDRFTGSGYGTDFTFTISTVQAEDLAVYFCQQDYSSPYTFGGGTKLEIERTVAAPSVFIFPPSDEQLKSGTASVVCLLNNFYPREAKVQWKVDNALQSGNSQESVTEQDSKDSTYSLSSTLTLSKADYEKHKVYACEVTHQGLSSPVTKSFNRGECGSGGGGSGGGGSGGGGSSGTTNTVAAYNLTWKSTNFKTILEWEPKPVNQVYTVQISTKSGDWKSKCFYTTDTECDLTDEIVKDVKQTYLARVFSYPAGNVESTGSAGEPLYENSPEFTPYLETNLGQPTIQSFEQVGTKVNVTVEDERTLVRRNNTFLSLRDVFGKDLIYTLYYWKSSSSGKKTAKTNTNEFLIDVDKGENYCFSVQAVIPSRTVNRKSTDSPVECMGQEKGEFRE
VH-CH1-HPC4: QVQLEQSGAELVRPGVSVKISCKGSGYTFTDYSMHWVKQSHAKSLEWIGVISTYYGDVRYNQKFKGKATMTVDKSSSTAYMALARLTSEDSAIYYCARAPMITTGAWFAYWGQGTLVTVSAASTKGPSVFPLAPCSRSTSESTAALGCLVKDYFPEPVTVSWNSGALTSGVHTFPAVLQSSGLYSLSSVVTVPSSSLGTKTYTCNVDHKPSNTKVDKRVESKEDQVDPRLIDGK

Columns and labels:
[1] = biological target: T1, TLT-1 18-188 relipidated in 20:80 PS:PC …; test: cell-based or functional assay
[2] = biological target: T2, TLT-1 receptor on the surface of …; test: cell-based or functional assay

Binder | FVII-mediated FXa generation % Activity lipidated TLT-1 [1] [%] | FVIIa-mediated FXa generation % Activity lipidated TLT-1 [1] [%] | FVII-mediated FXa generation % Activity activated plts (n 1) [2] [%] | FVIIa-mediated FXa generation % Activity activated plts (n 1) [2] [%]
B1 | 60 | 72 | – | –
B2 | 101 | 101 | 39 | 62
B3 | 103 | 103 | 40 | 57
B4 | 90 | 98 | – | 132
B5 | 26 | 42 | 20 | 43
B6 | 24 | 40 | 21 | 21
B7 | 27 | 44 | 20 | 45
B8 | 22 | 43 | – | –
